Experimental data taken from patent US20100196951.

Molecular target: MazE antitoxin with the Thrombin-recognition sequence LVPRGS in place of VDGK at positions 38 to 41 (UniProt P0AE72)

## Biothinylated Thrombin (Novagen)
  removal of the MazE band on SDS-PAGE after overnight Thrombin treatment (0.01 to 0.08 units): the residual MazE protein was successfully removed from the purified MazF sample by Thrombin treatment (lanes 2 to 5)
